The experiment has as its target T1, recombinant Human CTGF protein (connective tissue growth factor) (human, UniProt P29279 27-349).
T1 construct: connective tissue growth factor (CTGF), human, recombinant; source: bought: Abcam, Cat#ab283457
T1 sequence (looked up): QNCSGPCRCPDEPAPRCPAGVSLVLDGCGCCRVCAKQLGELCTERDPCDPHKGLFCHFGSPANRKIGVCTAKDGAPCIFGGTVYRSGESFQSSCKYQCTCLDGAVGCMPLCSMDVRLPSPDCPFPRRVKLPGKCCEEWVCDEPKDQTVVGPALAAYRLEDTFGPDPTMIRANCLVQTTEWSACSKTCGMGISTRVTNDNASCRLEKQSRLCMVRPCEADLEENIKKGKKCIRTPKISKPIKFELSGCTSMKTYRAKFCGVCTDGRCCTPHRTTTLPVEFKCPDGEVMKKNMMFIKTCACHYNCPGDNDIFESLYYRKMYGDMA
Description: SPR; BIAcore 8K+; recombinant human CTGF immobilised on a CM5 chip by amine coupling; eluent PBS with 0.005% Tween 20; DAG 0.5-16 μM or DGC 0.01-0.16 μM; 25 °C. The settings on record: both partners purified. In general terms: Surface plasmon resonance follows binding to a sensor surface in real time, without labels.

Ends that are not written are not given here.

Usually Kd stands for the free concentration of one partner at which half of the binding sites on the other are occupied at equilibrium, for simple one-to-one binding.

B1: DGC probe (peptide-coated gold nanocluster, Au26DAG8) (other)
peptide: CDAGRKQKC
modifications: also: Au26 nanocluster bound via Cys sulfhydryl Au-S bonds, cyclic, ring closure not given here
notes: DAG peptide, eight copies on one Au26 gold nanocluster; One Au26 gold nanocluster coated by eight DAG peptides (by MALDI-TOF-MS); also called CTGF-targeting peptide-coated gold nanocluster; source: synthesised from DAG peptide and HAuCl4 at 55 °C, purified by ultrafiltration (MWCO 3 kDa)
B1: the Kd turned out to be 0.0219 µM.

B2: cyclic peptide Cys-Asp-Ala-Gly-Arg-Lys-Gln-Lys-Cys (DAG) (peptide)
peptide: CDAGRKQKC
modifications: also: cyclic peptide, ring not given here
notes: CTGF-targeting peptide DAG; also called free DAG; DAG peptide; source: synthetic peptide (solid-phase method, Beijing Scilight Biotechnology LLC, purity 95%)
On to B2, for which the Kd was 22.3 µM.
